Data taken from patent US8415106B2, “Cell-based screen for agents useful for reducing neuronal demyelination or promoting neuronal remyelination” (Myelin Repair Foundation, Inc., priority 2005, dated 2013).

Key:
[1] = test system: oligodendrocytes and myelin in the corpus callosum; experiment: Cuprizone-induced demyelination/remyelination in GFAP/tTA; TRE/IFN-γ double transgenic mice; type: in vivo
Method: The effects of IFN-γ on demyelination were evaluated in a cuprizone animal model using transgenic mice that allow for temporally regulated delivery of IFN-γ using the tetracycline controllable system (Lin, et al. (2004) J. Neurosci. 24: 10074-10083). The transgenic mice were generated by mating line 110 GFAP/tTA mice on the C57BL/6 background with line 184 TRE/IFN-γ on the C57BL/6 background to produce GFAP/tTA; TRE/IFN-γ double transgenic mice (Lin, et al. (2004) J. Neurosci. 24: 10074-10083). Transcriptional activation of the TRE/IFN-γ transgene by tTA was repressed in the control (DOX+) mice by adding 0.05 mg/ml doxycycline to the drinking water which was provided ad libitum from the day of conception. The DOX+ double transgenic mice were GFAP/tTA; TRE/IFN-γdouble transgenic animals fed cuprizone chow and never released from the doxycycline solution. DOX− double transgenic mice were GFAP/tTA; TRE/IFN-γdouble transgenic animals fed cuprizone chow and released from doxycycline to induce expression of IFN-γ.
Demyelination was induced in 6-week-old DOX+ and DOX− male mice by feeding the mice a diet of milled mouse chow containing 0.2% cuprizone (Sigma-Aldrich, St. Louis, Mo.) for up to 6 weeks. Subsequently, both groups of mice were returned to a normal diet for up to 3 weeks to allow remyelination to occur. All animal procedures were conducted in complete compliance with the NIH Guide for the Care and Use of Laboratory Animals and were approved by the Institutional Animal Care and Use Committee of The University of Chicago.
The effect of INF-γ on the population of oligodendrocytes was evaluated by immunohistochemical analysis of oligodendrocytes using an anti-CC1 antibody (APC7, 1:50; EMD Biosciences, Inc., La Jolla, Calif.) Immunohistochemistry was performed on brain sections obtained from mice that were first anesthetized mice and perfused through the left cardiac ventricle with 4% paraformaldehyde in 0.1M PBS. The brains were removed, postfixed with paraformaldehyde, cryopreserved in 30% sucrose, embedded in OCT and frozen on dry ice. Frozen sections were cut in a cryostat at a thickness of 10 μm. […] Fluorescent stained sections were mounted with Vectashield mounting medium with DAPI (Vector Laboratories) and visualized with a Zeiss Axioplan fluorescence microscope. […] Immunopositive cells were quantified by counting positive cells within the median of the corpus callosum, confined to an area of 0.04 mm^2. Only those cells with nuclei observable by DAPI staining were counted. Each MBP immunostaining slide was scored on a scale of zero to four. […]

[2] = test system: ER stress markers (BIP, CHOP, p-eIF-2α); experiment: ER stress markers in the corpus callosum during remyelination (real time PCR, Western blot); type: in vivo, mice
Method: Repression of remyelination by IFN-γ is associated with ER stress. […] To determine whether IFN-γ interferes with endoplasmic reticulum (ER) function in remyelinating oligodendrocytes, the expression of ER stress markers was monitored in the corpus callosum of mice expressing IFN-γ. The study was performed using the transgenic mice described in Example 1.
The level of mRNA encoding ER stress associated genes binding immunoglobulin protein/78 KDa glucose regulated protein (BIP/GRP78) and the CAATT enhancer-binding protein homologous protein/growth and DNA damage protein 153 (CHOP/GADD153), was determined using real time PCR, as described in Example 1 in the corpus callosum of the cuprizone treated mice of Example 1. The probes, sense and antisense primers that were used were: […]
The level of phosphorylated eIF-2α, which inhibits nucleotide exchange on the eIF-2 complex and attenuates most protein synthesis, was analyzed by Western blot, and the expression was colocalized by immunostaining CC1 antibodies as described above. Western blot analysis was performed as follows. The corpus callosum from 3 mice was rinsed in ice cold phosphate-buffered saline (PBS) and pooled, and immediately homogenized in 5 volumes of Triton X-100 buffer (20 mM HEPES pH 7.5, 150 mM NaCl, 1% Triton X-100, 10% glycerol, 1 mM EDTA, 10 mM tetrasodium pyrophosphate, 100 mM NaF, 17.5 mM β-glycerophosphate, 10 mM phenylmethylsulfonyl fluoride, 15 μg/ml aprotonin, and 6 μg/ml pepstatin A) using a motorized homogenizer. After incubation on ice for 15 min, the extracts were cleared by centrifugation at 14,000 rpm twice for 30 min each. The protein content of each extract was determined by protein assay (Bio-Rad). The extracts (40 μg) were separated by sodium dodecyl sulfate-polyacrylamide gel electrophoresis and transferred to nitrocellulose. […] The following primary antibodies were used: anti-eIF-2α (1:500; Santa Cruz, Santa Cruz, Calif.), anti-p-eIF-2α (1:1000, Cell signaling Technology), anti-CHOP (1:500; Santa Cruz) and anti-actin (1:1000; Sigma, St Louis, Mo.).

[3] = DOX− compared to control DOX+ mice

B1: IFN-γ: pleotropic cytokine secreted by activated T lymphocytes and natural killer cells; recombinant rat IFN-γ added to cultures or transgenically expressed in mouse CNS (protein, UniProt P01581 23-156, looked up)
Interferon gamma: QGTLIESLESLKNYFNSSSMDAMEGKSLLLDIWRNWQKDGNTKILESQIISFYLRLFEVLKDNQAISNNISVIESHLITNFFSNSKAKKDAFMSIAKFEVNNPQIQHKAVNELIRVIHQLSPESSLRKRKRSRC
- remyelinated axons ([1]; DOX− mice (IFN-γ expressed), corpus callosum, week 8, control DOX+ 48.4%±4%): 26.9%±7%
- CC1 positive oligodendrocytes within the corpus callosum ([1]; DOX− mice, 8 weeks, control DOX+ 228.7±20.2): 78±12.7 /0.04 mm2
- NG2 positive OPCs in the corpus callosum ([1]; DOX− mice, week 4 of cuprizone treatment, DOX+ 19±2.12): 46±4.24 /0.04 mm^2
- NG2 positive OPCs in the corpus callosum ([1]; DOX− mice, week 6, DOX+ 80±2.8): 31.5±0.71 /0.04 mm^2
- level of mRNA for BIP [2, 3]: approximately 2 fold
- level of mRNA for CHOP [2, 3]: approximately 2 fold
- level of phosphorylated eIF-2α (Western blot) ([2]; DOX− double transgenic mice): approximately 1.8 fold
- level of the CHOP protein (Western blot) ([2]; DOX− double transgenic mice): approximately 1.7 fold
